Measurements as given in publication PMC6553756 (PLoS ONE, 2019).

Assays:
recombinant mouse PrP = molecular target: T1, recombinant mouse PrP (Mus musculus, UniProt P04925); test: ELISA
T1 construct: also called rMoPrP

[1] = molecular target: abnormal isoform prion protein (PrP^Sc) in the brain of Chandler prion-infected mice (Mus musculus, brain, Chandler prion …, UniProt P04925); test: immunostaining of cells or tissue; conditions: one partner purified
[2] = molecular target: T2, cellular prion protein (PrP^C) expressed in the brain of mock-infected mice (Mus musculus, mouse strain not shown, UniProt P04925); test: immunostaining of cells or tissue; conditions: one partner purified
T2 construct: source: endogenous, frozen brain sections of mock-infected mice
T2 sequence (P04925 23-230): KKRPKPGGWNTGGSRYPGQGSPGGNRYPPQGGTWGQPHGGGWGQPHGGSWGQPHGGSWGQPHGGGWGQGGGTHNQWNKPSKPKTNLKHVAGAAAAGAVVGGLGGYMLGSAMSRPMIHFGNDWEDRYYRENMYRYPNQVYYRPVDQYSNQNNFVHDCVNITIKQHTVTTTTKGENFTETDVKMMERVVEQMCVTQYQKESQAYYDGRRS

T1 sequence (P04925 23-230): as above
abnormal isoform prion protein (PrP^Sc) in the brain of Chandler prion-infected mice, sequence (P04925 23-230): as above

Binder | binding result (recombinant mouse PrP; both partners purified) | binding result [1] | binding result [2] | binding result (recombinant mouse PrP; one partner purified)
authentic anti-PrP monoclonal antibody 44B1 (IgG-44B1) (antibody, V domains shown, also called mAb 44B1; source: hybridoma, purified IgG; copies: 2 + 2) VH: DVKLVESGEGLVKPGGSLKLSCAASGITFSRYAMSWVRQTPEKRLEWVAYISSGGDYINYADTVKGRFTISRDNARNTLYLQMSSLKSEDTAMYYCTRVTPYWYFDVWGTGTTVTVSS VL: DIVLTQSPASLGVSLGQRATISCRASESVDSYGNSFMHWYQQKPGQPPKVLIYRASNRESGIPARFSGSGSRTDFTLTINPVEADDVATYYCQQSNEDPYTFGGGTKLEIK | binds | binds | binds | 
recombinant Fab of mAb 44B1 (rFab-44B1) (Fab, V domains shown, source: HEK293T, transfected (IRES plasmid), culture supernatant) VH: DVKLVESGEGLVKPGGSLKLSCAASGITFSRYAMSWVRQTPEKRLEWVAYISSGGDYINYADTVKGRFTISRDNARNTLYLQMSSLKSEDTAMYYCTRVTPYWYFDVWGTGTTVTVSS VL: DIVLTQSPASLGVSLGQRATISCRASESVDSYGNSFMHWYQQKPGQPPKVLIYRASNRESGIPARFSGSGSRTDFTLTINPVEADDVATYYCQQSNEDPYTFGGGTKLEIK |  |  |  | binds
